From doi:10.1101/2025.10.27.684894, “Alternative splicing of synaptotagmin 7 regulates oligomerization and short-term synaptic plasticity” (bioRxiv, 2025)

Biological target: T1, Halo-tagged α-syt7cyto (cytoplasmic domain of synaptotagmin 7 α, immobilised on HaloLink resin) (mouse, UniProt Q9R0N7 38-403)
T1 construct: synaptotagmin 7, α splice variant, cytoplasmic domain; The Halo-tagged construct is not described under DNA constructs; The sentence on syt1-fl says only 'immobilized syt7'; also called immobilized syt7; source: purified Halo-tagged protein; recombinant proteins were expressed in E. coli BL21(DE3)
Assay: pull-down; Halo-tagged bait immobilised on HaloLink resin (7 μM bait), prey syt1-fl in DOPC proteoliposomes; 25 mM HEPES pH 7.4, 100 mM KCl, 0.2 mM EGTA or 1.2 mM Ca2+; 1 h at 25 °C; supernatants analysed by SDS-PAGE and Western blot
Details: both partners purified

T1 sequence (Q9R0N7 38-403): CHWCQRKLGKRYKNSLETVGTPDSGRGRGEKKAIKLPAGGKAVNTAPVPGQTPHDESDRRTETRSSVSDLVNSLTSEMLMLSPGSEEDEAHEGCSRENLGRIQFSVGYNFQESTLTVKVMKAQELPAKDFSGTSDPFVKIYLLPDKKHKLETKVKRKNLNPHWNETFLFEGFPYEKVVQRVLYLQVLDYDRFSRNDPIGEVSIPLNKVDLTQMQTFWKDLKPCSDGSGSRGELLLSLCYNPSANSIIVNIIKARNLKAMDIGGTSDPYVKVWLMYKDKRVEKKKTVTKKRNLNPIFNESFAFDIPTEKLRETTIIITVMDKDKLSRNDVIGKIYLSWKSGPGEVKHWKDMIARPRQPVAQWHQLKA

ratio of binding in Ca2+ to binding in EGTA: 1.46 ± 0.15
B1: syt1-fl (full-length synaptotagmin 1, reconstituted into liposomes) (natural protein, rat, UniProt P21707 1-421, looked up)
chain: MVSASHPEALAAPVTTVATLVPHNATEPASPGEGKEDAFSKLKQKFMNELHKIPLPPWALIAIAIVAVLLVVTCCFCVCKKCLFKKKNKKKGKEKGGKNAINMKDVKDLGKTMKDQALKDDDAETGLTDGEEKEEPKEEEKLGKLQYSLDYDFQNNQLLVGIIQAAELPALDMGGTSDPYVKVFLLPDKKKKFETKVHRKTLNPVFNEQFTFKVPYSELGGKTLVMAVYDFDRFSKHDIIGEFKVPMNTVDFGHVTEEWRDLQSAEKEEQEKLGDICFSLRYVPTAGKLTVVILEAKNLKKMDVGGLSDPYVKIHLMQNGKRLKKKKTTIKKNTLNPYYNESFSFEVPFEQIQKVQVVVTVLDYDKIGKNDAIGKVFVGYNSTGAELRHWSDMLANPRRPIAQWHTLQVEEEVDAMLAVKK
notes: synaptotagmin 1, rat cDNA from T. C; Sudhof (Perin et al., 1990); the D374 mutation of that cDNA was corrected to glycine, so residue 374 is G; also called SUMO-syt1-fl; source: E. coli BL21(DE3), purified (with 0.9% CHAPS; cleaved from the beads with SUMO protease), reconstituted into DOPC proteoliposomes
